Measured values published in patent publication US12269859B2, “Synthetic immune receptors and methods of use thereof” (Angeles Therapeutics, Inc., priority 2016, dated 2025).

Tested on: target antigen-expressing cell line
Experiment: Jurkat NFAT-GFP assay, coculture with target cell lines expressing the respective target antigen (summary Table 10A)
Format: cell-based, human
Set-up: key: The signs +/−, +, 2+ etc. after the name of the cell lines indicate the relative degree of positivity on the Jurkat-NFAT-GFP assay as measured by the % GFP positive cells; +: relative degree of positivity on the Jurkat-NFAT-GFP assay as measured by the % GFP positive cells; 2+: relative degree of positivity on the Jurkat-NFAT-GFP assay as measured by the % GFP positive cells
Method in brief: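 Jurkat cells carrying an NFAT-driven GFP reporter and lentivirally expressing a SIR were cocultured with antigen-bearing target cells (E:T ~1:2) for about 4–18 h. GFP induction read by flow cytometry as % GFP+ cells, scored positive and graded (+/−, +, 2+) against parental Jurkat-NFAT-GFP cells.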

B1: 022817-U05 (protein)
chain: MALPVTALLLPLALLLHAARPDIQMNQSPSSLSASLGDTITITCHASQNINVWLSWYQQKPGNIPKLLIYKASNLHTGVPSRFSGSGSGTGFTITISSLQPEDIATYYCQQGQSYPWTFGGGTKLEIKRLEGKPIPNPLLGLDSTGSGEDLKNVFPPEVAVFEPSKAEIAHTQKATLVCLATGFYPDHVELSWWVNGKEVHSGVCTDPQPLKEQPALNDSRYCLSSRLRVSATFWQNPRNHFRCQVQFYGLSENDEWTQDRAKPVTQIVSAEAWGRADCGITSASYHQGVLSATILYEILLGKATLYAVLVSALVLMAMVKRKDSRGRAKRSGSGATNFSLLKQAGDVEENPGPTSMDWIWRILFLVGAATGAHSFEEVQLQQSGPELVKPGASVKISCKASGYSFTGYFMNWVKQSHGKSLEYIGRFNPYNGETLYNQKFKGKATLTVDKSSSTVHMELLSVTSEDSAVYYCGRSGNDDAMDYWGQGTSVTVSSATREQKLISEEDGSGIQNPDPAVYQLRDSKSSDKSVCLFTDFDSQTNVSQSKDSDVYITDKCVLDMRSMDFKSNSAVAWSNKSDFACANAFNNSIIPEDTFFPSSDVPCDVKLVEKSFETDTNLNFQNLSVIGFRILLLKVAGFNLLMTLRLWSSRAKRSGSGVKQTLNFDLLKLAGDVESNPGPSRGHMTEYKPTVRLATRDDVPRAVRTLAAAFADYPATRHTVDPDRHIERVTELQELFLTRVGLDIGKVWVADDGAAVAVWTTPESVEAGAVFAEIGPRMAELSGSRLAAQQQMEGLLAPHRPKEPAWFLATVGVSPDHQGKGLGSAVVLPGVEAAERAGVPAFLETSAPRNLPFYERLGFTVTADVEVPEGPRTWCMTRKPGA
modifications: Polynucleotide encoding a Synthetic Immune Receptor (SIR)
Coculture with Jurkats-TCRgd-SIR cells
  NFAT-GFP ASSAY Positive Cell lines: Jurkats-TCRgd-SIR

B2: 080816-G03 (protein)
chain: MALPVTALLLPLALLLHAARPLEGKPIPNPLLGLDSTGSGEDLKNVFPPEVAVFEPSKAEIAHTQKATLVCLATGFYPDHVELSWWVNGKEVHSGVCTDPQPLKEQPALNDSRYCLSSRLRVSATFWQNPRNHFRCQVQFYGLSENDEWTQDRAKPVTQIVSAEAWGRADCGITSASYHQGVLSATILYEILLGKATLYAVLVSALVLMAMVKRKDSRGRAKRSGSGATNFSLLKQAGDVEENPGPTSTMALPVTALLLPLALLLHAARPDIVMTQSQKFMSTSVGDRVSIICKASQNVGTFVAWYQQKPGQSPKLLVYSASNRYTGVPDRFTGSGSGTDFTLTINNMQSEDLADYFCRQYSSYPYTFGGGTKLEIKGGGGSGGGGSGGGGSEVQLQQSGPELVKPGASMKISCKASGYSFSAYTMNWVKQSHGKNLEWIGLINPYNGGTNYNQEFEGKATLTVNKSSNTAFMELLSLTSDDSAVYYCARRDWDYFDYWGQGTTLTVSSTREQKLISEEDLGSGTPFPSLAPPIMLLVDGKQQMVVVCLVLDVAPPGLDSPIWFSAGNGSALDAFTYGPSPATDGTWTNLAHLSLPSEELASWEPLVCHTGPGAEGHSRSTQPMHLSGEASTARTCPQEPLRGTPGGALWLGVLRLLLFKLLLFDLLLTCSCLCDPAGPLPSPATTTRLRALGSHRLHPATETGGREATSSPRPQPRDRRWGDTPPGRKPGSPVRAKRSGSGVKQTLNFDLLKLAGDVESNPGPSRSRGHMTEYKPTVRLATRDDVPRAVRTLAAAFADYPATRHTVDPDRHIERVTELQELFLTRVGLDIGKVWVADDGAAVAVWTTPESVEAGAVFAEIGPRMAELSGSRLAAQQQMEGLLAPHRPKEPAWFLATVGVSPDHQGKGLGSAVVLPGVEAAERAGVPAFLETSAPRNLPFYERLGFTVTADVEVPEGPRTWCMTRKPGA
modifications: Polynucleotide encoding a Synthetic Immune Receptor (SIR)
Coculture with TT cells
  NFAT-GFP ASSAY Positive Cell lines: TT (+/−)

B3: 112916-A01 (protein)
chain: MALPVTALLLPLALLLHAARPDIVMTQTPLSLPVTPGEPASISCRSSRSLLDSDDGNTYLDWYLQKPGQSPQLLIYTLSYRASGVPDRFSGSGSGTDFTLKISRVEAEDVGVYYCMQRVEFPITFGQGTRLEIKRLEGKPIPNPLLGLDSTGSGEDLKNVFPPEVAVFEPSKAEIAHTQKATLVCLATGFYPDHVELSWWVNGKEVHSGVCTDPQPLKEQPALNDSRYCLSSRLRVSATFWQNPRNHFRCQVQFYGLSENDEWTQDRAKPVTQIVSAEAWGRADCGITSASYHQGVLSATILYEILLGKATLYAVLVSALVLMAMVKRKDSRGRAKRSGSGATNFSLLKQAGDVEENPGPTSMDWIWRILFLVGAATGAHSFEQVQLVESGGGVVQPGRSLRLSCAASGFIFSRYGMHWVRQAPGKGLKWVAVIWYDGSNKLYADSVKGRFTISRDNSKNTLYLQMNSLRAEDTAVYYCARDYYDNSRHHWGFDYWGQGTLVTVSSTREQKLISEEDGSGIQNPDPAVYQLRDSKSSDKSVCLFTDFDSQTNVSQSKDSDVYITDKCVLDMRSMDFKSNSAVAWSNKSDFACANAFNNSIIPEDTFFPSSDVPCDVKLVEKSFETDTNLNFQNLSVIGFRILLLKVAGFNLLMTLRLWSSRAKRSGSGVKQTLNFDLLKLAGDVESNPGPSRGHMTEYKPTVRLATRDDVPRAVRTLAAAFADYPATRHTVDPDRHIERVTELQELFLTRVGLDIGKVWVADDGAAVAVWTTPESVEAGAVFAEIGPRMAELSGSRLAAQQQMEGLLAPHRPKEPAWFLATVGVSPDHQGKGLGSAVVLPGVEAAERAGVPAFLETSAPRNLPFYERLGFTVTADVEVPEGPRTWCMTRKPGA
modifications: Polynucleotide encoding a Synthetic Immune Receptor (SIR)
Coculture with SKOV3 cells
  NFAT-GFP ASSAY Positive Cell lines: SKOV3 (+)

B4: 102116-A05 (protein)
chain: MRLPAQLLGLLMLWVSGSSGDVVMTQSPLSLPVTPGAPASISCRSSQSIVHSNGNTYLEWYLQKPGQSPKLLIYKVSNRFSGVPDRFSGSGSGTDFTLRISRVEAEDVGIYYCFQGSHVPPTFGPGTKLEIKLEEQKLISEEDLGSGEDLKNVFPPEVAVFEPSKAEIAHTQKATLVCLATGFYPDHVELSWWVNGKEVHSGVCTDPQPLKEQPALNDSRYCLSSRLRVSATFWQNPRNHFRCQVQFYGLSENDEWTQDRAKPVTQIVSAEAWGRADCGITSASYHQGVLSATILYEILLGKATLYAVLVSALVLMAMVKRKDSRGRAKRSGSGATNFSLLKQAGDVEENPGPTSMDWIWRILFLVGAATGAHSFEEVQLVESGGGLVQPGGSLRLSCSASGFTFSSFGMHWVRQAPGKGLEWVAYISSGSSTIYYGDTVKGRFTISRDNAKNSLFLQMSSLRAEDTAVYYCAREGGYYYGRSYYTMDYWGQGTTVTVSTREQKLISEEDLGSGIQNPDPAVYQLRDSKSSDKSVCLFTDFDSQTNVSQSKDSDVYITDKCVLDMRSMDFKSNSAVAWSNKSDFACANAFNNSIIPEDTFFPSSDVPCDVKLVEKSFETDTNLNFQNLSVIGFRILLLKVAGFNLLMTLRLWSSRAKRSGSGVKQTLNFDLLKLAGDVESNPGPSRGHMTEYKPTVRLATRDDVPRAVRTLAAAFADYPATRHTVDPDRHIERVTELQELFLTRVGLDIGKVWVADDGAAVAVWTTPESVEAGAVFAEIGPRMAELSGSRLAAQQQMEGLLAPHRPKEPAWFLATVGVSPDHQGKGLGSAVVLPGVEAAERAGVPAFLETSAPRNLPFYERLGFTVTADVEVPEGPRTWCMTRKPGA
modifications: Synthetic Immune Receptor (SIR)
SIR-expressing Jurkat-NFAT-GFP cells cocultured with RAJI, relative % GFP positive cells
  NFAT-GFP ASSAY Positive Cell lines: RAJI: RAJI (+/−), U266
SIR-expressing Jurkat-NFAT-GFP cells cocultured with U266, relative % GFP positive cells
  NFAT-GFP ASSAY Positive Cell lines: U266: (+/−)
